Results reported in the DeepSol protein solubility set.

Assay: soluble on expression in E. coli; label from the status in PepcDB or PDB records

| Sequence | soluble on expression in E. coli |
| --- | --- |
| MVAKQISKADIHLLRVFCIVVDSQGFSNAQVALNVATSTISRQISELETRLGMRLCDRGRSGFRVTEKGETVYQAAQKLFGALGEFQETVDGSRGRLFGHLALGIIENWASNTSAPIVQALSRFTDLAPDVTIELHSLAPDDIEFAVLDGRVPIGIGVFHSPKPGILYTKVCEERVCLYCGSGHPLFHMTNLEDEERVLRQAQFAKRAYLNEDVVAPKTRNLPSNATAHQMEAIALLILTDKYVGYLPSYFAEEWVAKGRMKIVAGGSFDRPVSVQTATRRGMKLNSVGRTFLDILTAEAVKQGG | not soluble |
| MVALRGKDATSFLARPDPGRPIVLLYGPDAGLVRERADALIAASLDDPKDPFALVRLDGDELSAEPSRLVDEALAIPMFGGRRAIRVRAGSRSFVAGVEALIASPPRECRIVIEAGDIKPDNALRKACEKAATGAVAIGCYPDAEADIARLIDDELRGSNLQIAKDARAVLTTLLGGDRQASRNELRKLALYAHGKGEVTLDDVITCVSDASDLKLDAIVDAAFSGKPVVVETEFAKAMVAGTYPGQIILAAQRHAAFLHKTSLVVEGGTPAAVVLDSGFPRLHFSRKAAAETALRNLSTTRLAQIIEQLASAALETRRQATLGAAIAQRTLLSIAVSARRRSLEHHHHHH | soluble |
| MVAPGSVTSRLGSVFPFLLVLVDLQYEGAECGVNADVEKHLELGKKLLAAGQLADALSQFHAAVDGDPDNYIAYYRRATVFLAMGKSKAALPDLTKVIQLKMDFTAARLQRGHLLLKQGKLDEAEDDFKKVLKSNPSENEEKEAQSQLIKSDEMQRLRSQALNAFGSGDYTAAIAFLDKILEVCVWDAELRELRAECFIKEGEPRKAISDLKAASKLKNDNTEAFYKISTLYYQLGDHELSLSEVRECLKLDQDHKRCFAHYKQVKKLNKLIESAEELIRDGRYTDATSKYESVMKTEPSIAEYTVRSKERICHCFSKDEKPVEAIRVCSEVLQMEPDNVNALKDRAEAYLIEEMYDEAIQDYETAQEHNENDQQIREGLEKAQRLLKQSQKRDYYKILGVKRNAKKQEIIKAYRKLALQWHPDNFQNEEEKKKAEKKFIDIAAAKEVLSDPEMRKKFDDGEDPLDAESQQGGGGNPFHRSWNSWQGFNPFSSGGPFRFKFHFN | soluble |
| MVAQQKNLEGYVGFANLPNQVYRKSVKRGFEFTLMVVGESGLGKSTLINSLFLTDLYSPEYPGPSHRIKKTVQVEQSKVLIKEGGVQLLLTIVDTPGFGDAVDNSNCWQPVIDYIDSKFEDYLNAESRVNRRQMPDNRVQCCLYFIAPSGHGLKPLDIEFMKRLHEKVNIIPLIAKADTLTPEECQQFKKQIMKEIQEHKIKIYEFPETDDEEENKLVKKIKDRLPLAVVGSNTIIEVNGKRVRGRQYPWGVAEVENGEHCDFTILRNMLIRTHMQDLKDVTNNVHYENYRSRKLAAVTYNGVDNNKNKGQLTKSPLAQMEEERREHVAKMKKMEMEMEQVFEMKVKEKVQKLKDSEAELQRRHEQMKKNLEAQHKELEEKRRQFEDEKANWEAQQRILEQQNSSRTLEKNKKKGKIF | soluble |
| MVATEKKFVLTHIFKNVSKMKDSDFLYSPEENLFNVPWFMLIARKDDHFGVFLHCQKINEAGPTWSVDTQNTIRVKTLSASKVSSEIFKHKFEKNEGWGYFKFISWDTLTNDYLIDDCIIVEITVKITKMTGIPKKVLRSFDKSAEEFSDVVLEVGGKKFYVLKKFLASHSTYFNALLLGKPEMSEVTIQDTSSVDFQNLLEVLYGEPAIDEDTIDGILTLAHKFTMPLPIQKCEEFLIEKSEKSVKEKLKLVKKYQLKSLKTHCLSKINTPYGINALMPFDHNDMDPEVVMALLKKSLATDEFYLDCIMRFTVICLIFITVGLII | not soluble |
| MVCDFSQVRLRLADDGWRGTTTRREKDDAEDVEGKVTLRLRYTKTGAMRFLSHLEMIGLFTRAVGRSRIPIRFSRGFHPHPKFSFATALSVGVESWAEYLDMELFPGADPTDIGTRLNGALPEGVRIVEASVIPPGSPSLSVIMDKVRYRVTLPPEAAVGLPELAAAFLARESVPLRREKKGRVLEHHHHHH | not soluble |
| MVDEDKKSGTRVFKKTSPNGKITTYLGKRDFIDRGDYVDLIDGMVLIDEEYIKDNRKVTAHLLAAFRYGREDLDVLGLTFRKDLISETFQVYPQTDKSISRPLSRLQERLKRKLGANAFPFWFEVAPKSASSVTLQPAPGDTGKPCGVDYELKTFVAVTDGSSGEKPKKSALSNTVRLAIRKLTYAPFESRPQPMVDVSKYFMMSSGLLHMEVSLDKEMYYHGESISVNVHIQNNSNKTVKKLKIYIIQVADICLFTTASYSCEVARIESNEGFPVGPGGTLSKVFAVCPLLSNNKDKRGLALDGQLKHEDTNLASSTILDSKTSKESLGIVVQYRVKVRAVLGPLNGELFAELPFTLTHSKPPESPERTDRGLPSIEATNGSEPVDIDLIQLHEELEPRYDDDLIFEDFARMRLHGNDSEDQPSPSANLPPSLL | not soluble |
| MVDESKLQCYHKGCGLLFDPKENDNEACTYHPGGPYFHDAYKIWTCCDKKSTDFGTWMNYKGCTRGKHSNEKPVDIVKVAAVKEIRPEKEEDVIVWKGLNKSGKLDSKDATKRIEQNLNVEVTPGATAAIEKKLKEISEAAQSADIQIGAPCRNNGCSTEFDGSKNKENCQHHPGAAIFHEGMKYWSCCNKKTSNFGAFLEQVGCTSGEHKFRNNEIVSKFREDWFSSNGFVTINVYCRGALPETANIVSDGHTVRVSMKHGFGNASVDLDYDLWDEVIPEESRVVIGERKVEISLKQKHGTGWPRLKFDPELDAKNDEEA | not soluble |
| MVEDPYIWMENLQDNRVREIIERENKKFREFIGELSDKLFPEVWEYFSIPTVTMAKITKRGIIVSYNEKDRSIIRWLDGDVIVDSKEIEREVGDEVLLQGFTADDEGEKLAYSFSIGGADEGITRIIDLKSGEVIEEIKPSIWNILFLKDGYYFARFYRKEKTPDGVDPPAERVFWKDKEGEKMVFGEGLTSGYFMTLRKSSDDKFAMLTLNYGWNQGEIYVGPIDKPQEWRKVYSATVPVEPVDIVNGKLYILTREGRGMGKVIAVKDGEIEEVIPEGEFPLEWAVIVDDKIVAGRLVHASHRLEVYTLKGEKIEEVTFDIPGALHPLDKNNKEVLLRYISFTIPYRLYEFKDKLRIIEERKVEGKFKVEEDFVVSKDGTRIHYFIIKGEKDEKKAWVFGYGGFNIALTPRFFPQVIPFLKRGGTFVMANLRGGSEYGEEWHRAGMRENKQNVFDDFIAVLEKLKKEGYKVAAWGRSNGGLLVSATLTQRPDIMDAALIGYPVIDMLRFHKLYIGSVWIPEYGNPDDPKDREFLLKYSPYHNVDPNKKYPLTLIYTGLHDDRVHPAHALKFFMKLKEVGAPVYLRVETKSGHMGASPETRARELTDLLAFVLKSLS | soluble |
| MVEGKVTLRLRYTKTGAMRFLSHLEMIGLFTRAVGRSRIPIRFSRGFHPHPKFSFATALSVGVESWAEYLDMELFPGADPTDIGTRLNGALPEGVRIVEASVIPPGSPSLSVIMDKVRYRVTLPPEAAVGLPELAAAFLARESVPLRREKKGRVLEHHHHHH | soluble |
| MVEINLRELKKYANPFFLTIRKDKILVNNKRMARLSRTKMDKIEEEFGIPVIYSKTYEYVSTKVGRFINKHKIIAPRDIVIVGLSGGKDSLLLLHLLEVYRRKYGIKLIAVTVDVNIGGIRPWKEDTEGVKLIKHHCEMLNVPHIILKNDLDVVELSEILTKHSKGMEFSPCFSCSVIKRHLLGKLAKEIAENENIPYEKVKLAYGHNLDDNSDTILANIFKGERLKFMRPLTRFKYNEVDYQSFKIPLEECIIIRPMLPILERDIIKALEECGIEYYKDKDMCPYSRDRGDSVRRRCHEILEKLEEEIPNIREMVVSSALKTVEYYSKNPYGEDNL | soluble |
| MVELFGAVLLLFGLSDLLFRFLGLGAYAHGSRREPKVALTFDDGPSERTEALLALLARHGVKATFFLTGEKARARPDLVEAIKRAGHQVEDHGEWHRPLWLFLPWVEWRHMAQNPGRYYRPPYGLHTPFTRLFARLLGKRVVLWDLESKDWLNLPPEELAERLLFYLRPGSIVLFHDGPERTLRLLGAGPAGDAPPGVPAHHPGRPRPFAPHPEARPHPGPPGV | soluble |
| MVEQTTSEPAAGSMPKISFGVKKREENKVQAPAKAVVIEVDLDSDEEREKNEMERAAKRRKVMHFEDGTVQGDIDKPKEAAVIPMVVEHDWRTQKLIEKEKAGTLTEEERAKLALVLPNGIDGENEEESGKGEKIVVEDGRGDTEDADYSAIPIESFGLAILRGCNWKDGDGIGKNPQKVALKLPNRRPPGLGLGATPKNPVGKNKNTGESSKAEEEKLEEIKVGSFIKVVDGRNKGVYGKVEGRDDDSNSLFIRTAIGGKTMKVSQIVAVAVSAKEYERDSKCLNKSEYDKEKDRLETERKKLESQPPSTSTSQSSKDYKSKSSSSKHDKNSSEYERNDKMWARTDLLVRFIDEDFKRGSLYEQKVRIVDVAGDNDVTIEDDRGNTHYNIRQSWLETVIPREIGEKLMIVAGKRSGQLAVMLDKDKRKEKVTARLVATNDVVTAYFEDVCSVKIRHEEDYE | not soluble |
| MVERTAVFPAGRHSLYAEHRYSAAIRSGDLLFVSGQVGSREDGTPEPDFQQQVRLAFDNLHATLAAAGCTFDDIIDVTSFHTDPENQFEDIMTVKNEIFSAPPYPNWTAVGVTWLAGFDFEIKVIARIPEQ | soluble |
| MVESNKTAADTYSLAIFRAIRRLQQAAEIHSKRLSRYGGLTPLQLLILHVLAVEGELTATQLAKLVSLSQASLSGVLDRLEGRGLLYRRRDEQDRRKSWLHLDPAGHEALAEAPPLLPEYVIERFAALPEWERHGLLAALLRAADLFGLPEEDVEEE | not soluble |
| MVGHVLYGWRDRPRRGEVDYPHTENIRMGHTWDSKRDVSKFDKSWSDQNIVDAIVATLENPDYALSGKVKRVVWKDIHGTTVRVSYNVCLMVGVISDRAYSDTPDRKAKRIVE | not soluble |
| MVGPLNGAIGDITGAASELENIPFIGPAIGAKLQRTMRGINVAQAKVGQVVAMYGRATSAVSQVQERIGTLKEQASKASAAINRVAGKISPSLGNIVPTGSFASQATPAPEAVKPFPHLLIIQPLKPEAQPYYFNLDTAAFDELRRQTAFRWAGQERLTRSIAQQAVGLGDDKLSLKGSIFPGFKGGLKQLNTLRSMGRNLQPLSLTTGYGEVLGNWCLLSVDEEQSNLLAGGIPRKQGFSLEFVSYGDDLQNV | not soluble |
| MVIKFSSNTTNPPTMIYMGVDKVENEDLIKYGWPEDVWFHVDKLSSAHVYLRLHSGMTIDSIPEALLIDCCQLVKQNSIEGCKLNNVAIVYTMWSNLKKTGDMAVGQVGFHSHKQVKHTVVPTKINEIVNRLEKTRRKDDIDYKEERDARDAKERQKLKKLEQERKDREKKEMLAQNEKKRIEGYEDVDWDAGATTRNDVDPGNLSDDFM | not soluble |
| MVINSINWLFSEVVAMAVGEKITISVIKADVGGWPGHSRVHPALIEKAREVLSEAQKNGTIIDFYVTYAGDDLQLIMTHKKGVDSPEVHGLAWEAFKKATEVAKELGLYGAGQDLLKDAFSGNVRGLGPSVAEMEITLRKSEPIVTFHLDKTEPGAFNLPIFRMFADPFNTAGLVIDPKMHMGFRFEIWDILEHKKVIMSSPEEMYDILALIGAKSRYVIKRVYPKEGHPVPKDEPVAVVSTEKLYEVAGEYVGKDDPVAIVRAQSGLPALGEVLEPFAFPHLVSGWMRGSHNGPLMPVPLKYATPTRFDGPPRAVALGWQISPEGKLIGPVDLFDDPAFDWARQKALEITDYIRRHGPFEPHRLPSEEMEYTTLPGVLEKLKDRFEPIE | soluble |
| MVIRVYIASSSGSTAIKKKQQDVLGFLEANKIGFEEKDIAANEENRKWMRENVPENSRPATGYPLPPQIFNESQYRGDYDAFFEARENNAVYAFLGLTAPPGSKEAEV | soluble |
| MVKDEVIKQISTPLTSPAFPRGPYKFHNREYFNIVYRTDMDALRKVVPEPLEIDEPLVRFEIMAMHDTSGLGCYTESGQAIPVSFNGVKGDYLHMMYLDNEPAIAVGRELSAYPKKLGYPKLFVDSDTLVGTLDYGKLRVATATMGYKHKALDANEAKDQICRPNYMLKIIPNYDGSPRICELINAKITDVTVHEAWTGPTRLQLFDHAMAPLNDLPVKEIVSSSHILADIILPRAEVIYDYLK | soluble |
